Measurements from paper PMC3940202, “Structure of Bacillus subtilis γ-glutamyltranspeptidase in complex with acivicin: diversity of the binding mode of a classical and electrophilic active-site-directed glutamate analogue” (Acta Crystallographica Section D: Biological Crystallography, 2014).

Molecular target: T1, Bacillus subtilis γ-glutamyltranspeptidase large (L) subunit (Bacillus subtilis, UniProt P54422 36-402)
T1 construct: γ-glutamyltranspeptidase (GGT; EC 2.3.2.2) of Bacillus subtilis, large subunit, residues 36-402, formed from the precursor by autocatalytic cleavage before Thr403; The range 36-402 is what it gives for the L subunit of the protein; The His-tag segment and residues 396-402 are disordered in the crystal; also called GGT L subunit; His6-GGT (large subunit); source: E. coli C41(DE3), plasmid pCold …
T1 sequence (looked up): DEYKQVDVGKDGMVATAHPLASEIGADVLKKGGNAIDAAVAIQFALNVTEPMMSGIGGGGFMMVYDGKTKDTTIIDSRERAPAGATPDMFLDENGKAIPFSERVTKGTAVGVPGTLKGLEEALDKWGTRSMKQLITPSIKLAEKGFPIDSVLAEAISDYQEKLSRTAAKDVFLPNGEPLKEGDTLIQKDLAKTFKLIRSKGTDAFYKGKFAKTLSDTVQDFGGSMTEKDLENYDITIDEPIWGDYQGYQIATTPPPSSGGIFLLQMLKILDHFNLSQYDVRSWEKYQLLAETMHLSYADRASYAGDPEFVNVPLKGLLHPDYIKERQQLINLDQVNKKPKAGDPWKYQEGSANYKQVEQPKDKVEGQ
Assay: crystal structure; micro-oil batch method at 293 K; 10 mg/ml protein in 50 mM HEPES pH 7.0 mixed with 26%(w/v) PEG 3350, 0.7 M sodium thiocyanate, 6%(v/v) ethylene glycol; crystals soaked 2 h in 5 mM acivicin; refined at 1.8 Å; one heterodimer in the asymmetric unit
Details: both partners purified

binding result: binds
B1: Bacillus subtilis γ-glutamyltranspeptidase small (S) subunit (enzyme, UniProt P54422 403-587, looked up)
chain: TTHFTVADRWGNVVSYTTTIEQLFGTGIMVPDYGVILNNELTDFDAIPGGANEVQPNKRPLSSMTPTILFKDDKPVLTVGSPGGATIISSVLQTILYHIEYGMELKAAVEEPRIYTNSMSSYRYEDGVPKDVLSKLNGMGHKFGTSPVDIGNVQSISIDHENGTFKGVADSSRNGAAIGINLKRK
modifications: acivicin covalently bound through its C3 atom to Thr403 Oγ (crystal soaked for 120 min, PDB 3whs; not in the crystal without soaking, PDB 3whq)
notes: γ-glutamyltranspeptidase (GGT); Made as one His6-tagged precursor with the L subunit and processed autocatalytically; also called GGT S subunit
